Test results taken from patent publication US20110171242A1 (published 2011).
Residue numbers refer to the chain shown, from its start. Numbers in names are those of the source.

T1: LTα1β2 complex from II-23.D7 cells (human, UniProt P01374 35-205; Q06643 1-244)
T1 construct: also called LTβ (33 kDa) and LTα (23-25 kDa) complex
T1 sequence (looked up) 1: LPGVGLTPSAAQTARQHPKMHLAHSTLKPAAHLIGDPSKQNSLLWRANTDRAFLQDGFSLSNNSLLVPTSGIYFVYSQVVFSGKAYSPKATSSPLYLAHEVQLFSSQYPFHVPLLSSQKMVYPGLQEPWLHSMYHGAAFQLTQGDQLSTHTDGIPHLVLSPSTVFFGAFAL
T1 sequence (looked up) 2: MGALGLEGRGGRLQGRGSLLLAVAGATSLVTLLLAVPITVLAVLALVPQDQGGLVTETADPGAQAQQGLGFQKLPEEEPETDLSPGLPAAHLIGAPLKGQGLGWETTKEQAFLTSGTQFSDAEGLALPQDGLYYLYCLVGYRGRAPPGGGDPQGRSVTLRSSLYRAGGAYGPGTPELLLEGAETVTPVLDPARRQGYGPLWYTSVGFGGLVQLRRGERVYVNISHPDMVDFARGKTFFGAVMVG

T2: TNFR60:Fc (human, UniProt P19438 30-211, limits assumed)
T2 construct: Previously described construct (Crowe 1994); also called TNFR:Fc; TNFR1-Fc; not shown: Fc region of human IgG1
T2 sequence (looked up): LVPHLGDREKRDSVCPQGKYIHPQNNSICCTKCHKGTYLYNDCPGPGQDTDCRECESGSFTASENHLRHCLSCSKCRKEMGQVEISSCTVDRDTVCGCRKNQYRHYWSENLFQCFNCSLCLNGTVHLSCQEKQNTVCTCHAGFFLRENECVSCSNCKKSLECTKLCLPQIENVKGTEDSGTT

T3: TNFR1 on normal human dermal fibroblasts (human, UniProt P19438 30-455)
T3 sequence (looked up): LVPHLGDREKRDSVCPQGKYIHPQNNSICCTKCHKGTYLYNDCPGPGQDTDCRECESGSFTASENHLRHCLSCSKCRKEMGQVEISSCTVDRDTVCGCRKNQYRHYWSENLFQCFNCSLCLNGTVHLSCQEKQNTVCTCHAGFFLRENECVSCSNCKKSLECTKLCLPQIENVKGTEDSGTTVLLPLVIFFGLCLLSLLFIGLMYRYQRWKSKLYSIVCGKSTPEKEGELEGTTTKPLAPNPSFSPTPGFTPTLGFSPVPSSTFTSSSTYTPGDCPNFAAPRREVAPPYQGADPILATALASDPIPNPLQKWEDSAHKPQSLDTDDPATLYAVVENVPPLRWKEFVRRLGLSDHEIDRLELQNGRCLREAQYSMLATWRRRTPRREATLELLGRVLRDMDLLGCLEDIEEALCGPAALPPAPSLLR

B1: human HVEM:Fc (Fc of human IgG1) (Fc fusion, UniProt Q92956 39-184, looked up)
chain: LPSCKEDEYPVGSECCPKCSPGYRVKEACGELTGTVCEPCPPGTYIAHLNGLSKCLQCQMCDPAMGLRASRNCSRTENAVCGCSPGHFCIVQDGDHCAACRAYATSSPGQRVQKGGTESQDTLCQNCPPGTFSPNGTLEECQHQTK
notes: range 1-184; Bivalent chimeric protein made with baculovirus vector pVL1392; also called huHVEM:Fc; hu HVEM:Fc; not shown: Fc region of human IgG1
B2: LIGHTt66-FLAG (ligand, not shown: small tags and cut ends)
chain: EMVTRLPDGPAGSWEQLIQERRSHEVNPAAHLTGANSSLTGSGGPLLWETQLGLAFLRGLSYHDGALVVTKAGYYYIYSKVQLGGVGCPLGLASTITHGLYKRTPRYPEELELLVSQQSPCGRATSSSRVWWDSSFLGGVVHLEAGEEVVVRVLDERLVRLRDGTRSYFGAFMV
notes: also called soluble homotrimeric LIGHT; recombinant soluble LIGHT
B3: LIGHT t66 Y173F (ligand, not shown: small tags and cut ends)
chain: B2 chain with Y107F
notes: FLAG-tagged point mutant from transiently transfected 293T cells, homotrimer
B4: LIGHT t66 G119E (ligand, not shown: small tags and cut ends)
chain: B2 chain with G53E
notes: FLAG-tagged point mutant from transiently transfected 293T cells, homotrimer; also called LIGHTG119E; LIGHT-G119E
B5: LIGHT t66 L120Q (ligand, not shown: small tags and cut ends)
chain: B2 chain with L54Q
notes: FLAG-tagged point mutant from transiently transfected 293T cells, homotrimer; also called L12OQ
B6: LIGHT t66 Q117T (ligand, not shown: small tags and cut ends)
chain: B2 chain with Q51T
notes: FLAG-tagged point mutant from transiently transfected 293T cells, homotrimer; also called Q11TT
B7: murine LTβR:Fc (Fc fusion, mouse, UniProt P50284 31-221, looked up)
chain: QLVPPYRIENQTCWDQDKEYYEPMHDVCCSRCPPGEFVFAVCSRSQDTVCKTCPHNSYNEHWNHLSTCQLCRPCDIVLGFEEVAPCTSDRKAECRCQPGMSCVYLDNECVHCEEERLVLCQPGTEAEVTDEIMDTDVNCVPCKPGHFQNTSSPRARCQPHTRCEIQGLVEAAPGTSYSDTICKNPPEPGAM
notes: range 1-221; Encoded range includes the signal peptide; also called muLTβR:Fc; mouse LTβR:Fc; not shown: Fc region; human IgG1 by the opening sentence of the paragraph, not restated for this construct
B8: p30 (LIGHT), the cell surface HVEM ligand of activated II-23.D7 cells and human T cells (ligand)
chain: MEESVVRPSVFVVDGQTDIPFTRLGRSHRRQSCSVARVGLGLLLLLMGAGLAWQGWFLLQLHWRLGEMVTRLPDGPAGSWEQLIQERRSHEVNPAAHLTGANSSLTGSGGPLLWETQLGLAFLRGLSYHDGALVVTKAGYYYIYSKVQLGGVGCPLGLASTITHGLYKRTPRYPEELELLVSQQSPCGRATSSSRVWWDSSFLGGVVHLEAGEEVVVRVLDERLVRLRDGTRSYFGAFMV
notes: see m1; also called 30 kDa protein; cell surface ligand for HVEM
B9: LTα homotrimer (ligand, UniProt P01374 35-205, looked up)
chain: T1 sequence (looked up) 1

What was measured:
[1] = molecular target: B8; assay: flow cytometry, graded HVEM:Fc on activated II-23.D7 cells
Description: II-23.D7 cells were activated for 4 hours at 37° C. with phorbol myristate acetate (PMA) (100 ng/ml), or PMA (100 ng/ml) and ionomycin (1 μg/ml). […] Stained cells were analyzed by flow cytometry (FACSCaliber, Becton-Dickenson). Receptor binding was determined by calculating the fluorescence intensity=(mean fluorescent channel) (% positive fluorescent events), where a positive event has a fluorescence value >98% of the value for normal IgG. Specific fluorescence intensity represents the fluorescence intensity after subtraction of the value for control IgG. Each histogram represents 10₄ events.

[2] = molecular target: B9; assay: precipitation of 35S-labelled proteins with receptor:Fc and protein G, SDS-PAGE
[3] = molecular target: TNF (UniProt P01375 77-233); assay: precipitation of 35S-labelled secreted proteins of activated II-23.D7 cells with receptor:Fc 10 µg/ml and protein G, SDS-PAGE
Description: (§1) The culture supernatants were harvested and the cells lysed in buffer containing 2% NP40, HEPES pH7.0, 20 mM EDTA, 150 mM NaCl with leupeptin and aprotinin (at 10 μg/ml), PMSF (1 mM) and iodoacetamide (20 mM). The extract was precleared with human IgG (10 μg), where indicated, anti-LT antibodies and protein G beads. The receptor:Fc fusion proteins (10 μg/ml) were then added to the samples and precipitated with protein G beads. Labeled proteins were analyzed by reducing SDS-PAGE and phosphoimage (pixel range 6-200).

[4] = molecular target: LTβR (whole, in cells) (human, UniProt P36941 31-435); assay: cell-based or functional assay
[5] = molecular target: B1; assay: SPR (BIAcore 1000), receptor:Fc amine-coupled to CM5 chip, LIGHT as analyte 100-500 nM, 25 C
Description: (§2) The sensor surface was equilibrated with PBS (20 mM sodium phosphate/150 mM NaCl, pH 7.4) and sensorgrams were collected at 25° C. and a flow rate of 5 μl/min. […] The sensor surface was regenerated after each cycle with a 10 μl pulse of 10 mM glycine pH 2.0. Sets of 5 analyte concentrations, 100 to 500 nM were collected, and analyzed by nonlinear regression using the BIlAevaluation software (2.1)™. Association and dissociation data were fitted on the basis of the simple AB⇄A+B model.

[6] = molecular target: T4, human LTβR:Fc (human, UniProt P36941 31-227, limits assumed); assay: as above
T4 construct: Bivalent chimeric protein, previously described; also called huLTβR:Fc; hu LTβR:Fc; not shown: Fc region of human IgG1

[7] = molecular target: B7; assay: ELISA, plate-bound receptor:Fc, M2 anti-FLAG detection
Description: (§3) After washing with PBS/0.5% Tween, samples were applied diluted in PBS/3% BSA and incubated for 1 h at RT. After washing wells were incubated with monoclonal anti-FLAG (M2) (10 μg/ml in PBS/BSA) for 1 h at RT, washed and incubated with goat anti-mouse HRP (1:5000) for 1 hr at RT. […] The OD was measured at 415 nm in a SpectraMax plate reader (Molecular Devices Corp., Sunnyvale, Calif.).

[8] = molecular target: T5, murine HVEM:Fc (mouse; human, UniProt Q80WM9 39-205; P01857 99-330 = IgG part); assay: as above
T5 construct: range 1-205;domain: Fc region; Produced in TN5 insect cells, protein A purified, 58 kDa reduced; Encoded range includes the signal peptide; also called muHVEM:Fc; mouse HVEM:Fc
Description: as §3

[9] = molecular target: B1; assay: SPR
Description: as §2

[10] = molecular target: T4, human LTβR:Fc; assay: SPR (BIAcore 1000), receptor:Fc amine-coupled to CM5 chip, LIGHT mutant as analyte
Description: as §2

[11] = molecular target: B1; assay: ELISA, plate-bound receptor:Fc, M2 anti-FLAG detection
Description: as §3

[12] = molecular target: T1, LTα1β2 complex from II-23.D7 cells; assay: 2D electrophoresis of proteins bound to murine LTβR:Fc, FIG. 4A
[13] = molecular target: T2, TNFR60:Fc; assay: precipitation from detergent extracts of activated II-23.D7 cells, SDS-PAGE and 2D electrophoresis
Description: as §1
II-23.D7 cells were activated with PMA (100 ng/ml) or PMA and ionomycin (1 μg/ml) for 2.5 hours, followed by labeling with ³⁵S-methionine and -cysteine as in the above two paragraphs. Cell extracts were pre-cleared with human IgG (5 μg) and protein G beads to remove nonspecifically binding proteins. […] In each case, the beads were washed three times to remove the contaminating proteins in the non-bound fraction.

[14] = molecular target: T3, TNFR1 on normal human dermal fibroblasts; assay: cell-based or functional assay

T5 sequence (Q80WM9 other isoform, or with tags, fused parts or gaps): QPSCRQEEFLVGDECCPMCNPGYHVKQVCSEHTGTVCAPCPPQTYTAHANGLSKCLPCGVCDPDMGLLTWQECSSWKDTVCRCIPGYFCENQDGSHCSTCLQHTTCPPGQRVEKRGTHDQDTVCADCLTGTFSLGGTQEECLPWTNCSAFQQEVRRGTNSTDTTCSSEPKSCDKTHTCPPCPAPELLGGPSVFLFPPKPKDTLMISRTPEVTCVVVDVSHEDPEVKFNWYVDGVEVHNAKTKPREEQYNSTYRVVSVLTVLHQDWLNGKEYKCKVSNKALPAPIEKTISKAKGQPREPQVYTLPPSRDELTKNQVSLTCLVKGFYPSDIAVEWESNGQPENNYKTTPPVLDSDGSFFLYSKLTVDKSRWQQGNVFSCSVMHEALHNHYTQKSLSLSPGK
T4 sequence (P36941 31-227 limits assumed): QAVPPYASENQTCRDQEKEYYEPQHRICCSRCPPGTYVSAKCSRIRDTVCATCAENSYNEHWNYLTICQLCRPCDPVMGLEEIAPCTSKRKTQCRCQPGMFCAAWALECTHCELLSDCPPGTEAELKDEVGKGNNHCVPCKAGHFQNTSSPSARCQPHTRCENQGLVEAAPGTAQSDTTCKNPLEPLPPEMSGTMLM
TNF, sequence (P01375 77-233 limits assumed): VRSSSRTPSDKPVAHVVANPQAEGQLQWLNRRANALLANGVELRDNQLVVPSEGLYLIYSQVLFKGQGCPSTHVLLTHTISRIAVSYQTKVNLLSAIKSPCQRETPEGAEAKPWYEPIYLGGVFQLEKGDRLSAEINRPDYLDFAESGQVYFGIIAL

Binder	Kd [5] [nM]	koff [5] [s⁻¹]	kon [5] [M⁻¹ s⁻¹]	Kd [6] [nM]	koff [6] [s⁻¹]	kon [6] [M⁻¹ s⁻¹]	binding result [7]	other results
B1	–	–	–	–	–	–	–	EC50 [1]: ~20 nM; binding result [2]: binds; binding result [3]: no binding
B2	3.9	4.8e-05	12000	4.5	0.00012	27000	–	IC50 for inhibition of HCMV pp28 expression (western blot) [4]: ~0.4 nM; up-regulation of ICAM expression by NHDF cells (flow cytometry, 36 h, 5 nM) [4]: 4 fold; fold lower affinity than for the human receptor [7]: 10 fold; fold lower affinity than for the human receptor [8]: 10 fold
B3	173	0.0033	19000	31	0.0011	37000	no binding	up-regulation of ICAM expression by NHDF cells (flow cytometry, 36 h, 20 nM) [4]: 2.5 fold; Kd [9]: 180 nM; fold lower affinity than LIGHT t66 [9]: > 40 fold; binding result [8]: no binding
B4	114	0.002	18000	–	–	–	no binding	up-regulation of ICAM expression by NHDF cells (flow cytometry, 36 h, 20 nM) [4]: < 1.5 fold; fold lower affinity than LIGHT t66 [9]: ~30 fold; binding result [8]: no binding; binding result [10]: no binding (tested: 100 to 500 nM)
B5	–	–	–	–	–	–	binds	binding result [11]: binds
B6	0.3	5e-06	20000	1.5	4.5e-05	32000	–	–
B7	–	–	–	–	–	–	–	binding result [12]: binds
B8	–	–	–	–	–	–	–	binding result [13]: no binding
B9	–	–	–	–	–	–	–	IC50 for inhibition of HCMV pp28 expression (western blot) [14]: ~0.01 nM; anti-viral activity against LTα1β2 and LIGHT (pp28 expression) [14]: ≥ 40 fold
